T1: SC35 (GST-SC35) (Populus tomentosa, UniProt A0AAD6QWB7 1-302)
T1 sequence: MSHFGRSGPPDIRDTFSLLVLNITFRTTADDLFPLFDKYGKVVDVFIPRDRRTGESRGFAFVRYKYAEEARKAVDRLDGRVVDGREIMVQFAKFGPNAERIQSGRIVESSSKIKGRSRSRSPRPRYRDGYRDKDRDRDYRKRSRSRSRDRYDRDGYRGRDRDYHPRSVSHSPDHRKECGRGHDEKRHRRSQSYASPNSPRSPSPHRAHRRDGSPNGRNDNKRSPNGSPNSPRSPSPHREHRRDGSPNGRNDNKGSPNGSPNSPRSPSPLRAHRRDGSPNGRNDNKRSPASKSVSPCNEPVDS

B1: Mutation-Probe2 (ssRNA)
RNA: UUAGAGAGAGUCCUUAAUCUGGGUUUGGUU
B2: Probe2 (ssRNA)
RNA: UUAGAGAGAGUGGAAUUAGUGGGUUUGGUU
B3: Probe1 (ssRNA)
RNA: CAUUAUGUUGAGGAAUUAGAAGAUAAGGUG
B4: Mutation-Probe1 (ssRNA)
RNA: CAUUAUGUUGACCUUAAUCAAGAUAAGGUG

biological target: T1, SC35 (GST-SC35); test: EMSA

Q: Does B1 bind?
A: Result: no binding

Q: Does B2 bind?
A: Result: binds

Q: Does B3 bind?
A: Result: binds

Q: Does B4 bind?
A: Result: no binding

From paper PMC12328635
